From patent US20080207498A1, “Methods for Treating Alzheimer's Disease” (priority 2005, published 2008) come the findings set out here.

Assay [1] concerns the target Human wt tau protein (441 residues; Sigma-Aldrich) (human) (UniProt P10636). Description: reverse ELISA: PAP without peptide on plate coated with human wt tau. In general terms: ELISA stands for enzyme-linked immunosorbent assay.
Assay [2] addresses Purified human C1q (Quidel Corp.) (human) (UniProt P02745). The experiment in a line: reverse ELISA: PAP without competitor on C1q-coated plate.
The next assay concerns the target Highly purified FcγIIb. Description: reverse ELISA: PAP without peptide on FcγIIb-coated plate.
Assay [3] deals with Human wt β amyloid peptide 1-40 (amyloid precursor protein (APP) fragment 1-40; Sigma-Aldrich) (human). The experiment in a line: reverse ELISA: PAP without peptide on plate coated with human wt β amyloid peptide 1-40.
In a further assay the target is Highly purified FcγIII. The experiment in a line: reverse ELISA: PAP without peptide on FcγIII-coated plate.
For another assay, the target named is Highly purified FcγIIa. The experiment in a line: reverse ELISA: PAP without peptide on FcγIIa-coated plate.

Chain of Preformed immune complex of peroxidase and rabbit anti-peroxidase IgG (PAP complex) (P00433 31-338, one chain of several): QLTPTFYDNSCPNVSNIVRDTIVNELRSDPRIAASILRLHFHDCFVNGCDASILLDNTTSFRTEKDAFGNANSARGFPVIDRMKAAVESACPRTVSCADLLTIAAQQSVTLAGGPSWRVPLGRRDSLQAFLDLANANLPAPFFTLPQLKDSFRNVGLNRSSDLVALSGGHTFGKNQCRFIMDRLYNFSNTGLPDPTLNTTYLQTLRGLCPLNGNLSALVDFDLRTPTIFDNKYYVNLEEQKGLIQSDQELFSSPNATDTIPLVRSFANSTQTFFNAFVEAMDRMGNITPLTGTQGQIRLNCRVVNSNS
Chain of Purified human C1q (Quidel Corp.) (human) (P02745 23-245 limits assumed, chain 1 of 3): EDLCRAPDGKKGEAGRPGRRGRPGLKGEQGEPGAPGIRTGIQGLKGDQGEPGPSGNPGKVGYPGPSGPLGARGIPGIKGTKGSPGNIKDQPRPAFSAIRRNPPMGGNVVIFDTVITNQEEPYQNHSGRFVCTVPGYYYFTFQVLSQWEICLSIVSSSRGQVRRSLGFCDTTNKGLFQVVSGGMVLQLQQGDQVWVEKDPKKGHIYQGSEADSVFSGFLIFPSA
Chain of Purified human C1q (Quidel Corp.) (human) (P02746 28-253 limits assumed, chain 2 of 3, further chain): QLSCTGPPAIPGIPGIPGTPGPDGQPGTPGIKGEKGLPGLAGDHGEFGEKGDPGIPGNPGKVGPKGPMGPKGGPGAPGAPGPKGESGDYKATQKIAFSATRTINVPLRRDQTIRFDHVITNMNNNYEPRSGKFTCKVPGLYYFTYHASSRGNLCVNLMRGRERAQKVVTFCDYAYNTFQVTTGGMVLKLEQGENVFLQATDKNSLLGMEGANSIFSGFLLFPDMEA
Chain of Purified human C1q (Quidel Corp.) (human) (P02747 29-245 limits assumed, chain 3 of 3, further chain): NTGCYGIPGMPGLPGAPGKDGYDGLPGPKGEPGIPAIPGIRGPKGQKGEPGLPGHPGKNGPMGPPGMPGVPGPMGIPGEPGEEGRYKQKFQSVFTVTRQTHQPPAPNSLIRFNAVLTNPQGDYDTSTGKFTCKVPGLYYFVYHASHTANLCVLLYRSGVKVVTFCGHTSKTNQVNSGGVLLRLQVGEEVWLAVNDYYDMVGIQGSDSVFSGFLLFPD
Chain of Human wt tau protein (441 residues; Sigma-Aldrich) (human) (P10636 other isoform, or with tags, fused parts or gaps limits assumed): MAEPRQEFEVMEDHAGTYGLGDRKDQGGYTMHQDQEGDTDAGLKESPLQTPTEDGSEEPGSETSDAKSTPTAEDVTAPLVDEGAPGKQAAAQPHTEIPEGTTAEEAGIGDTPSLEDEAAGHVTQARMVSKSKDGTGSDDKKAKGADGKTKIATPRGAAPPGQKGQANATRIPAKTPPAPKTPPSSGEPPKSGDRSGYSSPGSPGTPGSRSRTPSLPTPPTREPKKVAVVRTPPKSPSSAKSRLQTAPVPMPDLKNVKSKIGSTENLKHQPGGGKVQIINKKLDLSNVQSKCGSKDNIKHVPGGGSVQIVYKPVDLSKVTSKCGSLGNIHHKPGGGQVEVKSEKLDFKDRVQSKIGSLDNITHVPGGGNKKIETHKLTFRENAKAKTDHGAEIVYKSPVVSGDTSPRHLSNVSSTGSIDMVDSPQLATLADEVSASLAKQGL

Take “Preformed immune complex of peroxidase and rabbit anti-peroxidase IgG (PAP complex) (from UniProt P00433 31-338)”: the OD 405 nm in assay [1] was determined as 0.695 OD; in assay [2], 2.35 OD; with Highly purified FcγIIb, 1.39 OD; in assay [3], 3.28 OD; in the assay with Highly purified FcγIII, 1.59 OD; with Highly purified FcγIIa it was 1.6 OD.
